{"source": "patent US7943358B2", "about": "“Polymerase enhancing factor (PEF) extracts, PEF protein complexes, isolated PEF protein, and methods for purifying and identifying” (Agilent Technologies, Inc., priority 1997, dated 2011)", "molecules": {"B1": {"name": "PEF: polymerase enhancing factor complex purified from Pyrococcus furiosus; predominant components P50 and P45 (protein)", "chain 1": "MLHHVKLIYATKSRKLVGKKIVXXXPGSIAALDVKACEGLIRHGAEVHAVMSEAATKIIHPYAWNLPTGNPVITEITGFIEHVELAGEHENKADLILVCPATANTISKIACGIDDTPVTTVVTTAFPHIPIMIAPAMHETMYRHPIVRENIERLKKLGVEFIGPRIEEGRAKVASIDEIVYRVIKKLHKKTLEGKRVLVTAGATREYIDPIRFITNASSGKMGVALAEEADFRGAVTLIRTKGSVKAFRIRKIKLKVETVEEMLSAIENELRSKKYDVVIMAAAVSDFRPKIKAEGKIKSGRSITIELVPXNPKIIDRIKEIQPNVFLVGFKAETSKEKLIEEGKRQIERAKADLVVGNTLEAFGSEENQVVLIGRDFTKELPKMKKRELAERIWDEIEKXLS", "chain 2": "MLLPDWKIRKEILIEPFSEESLQPAGYDLRVGREAFVKGKLIDVEKEGKVVIPPREYALILTLERIKLPDDVMGDMKIRSSLAREGVIGSFAWVDPGWDGNLTLMLYNASNEPVELRYGERFVQIAFIRLEGPARNPYRGNYQGSTRLAFSKRKKL", "modifications": "not fully specified; X: residue not identified in the source", "notes": "polymerase enhancing factor complex purified from Pyrococcus furiosus; predominant components P50 and P45"}}, "format_in_all_cases": "biochemical", "key": {"[1]": {"experiment": "Reverse phase HPLC analysis of dUTP conversion", "settings": "72° C.", "protocol": "The similarity of P45 to dCTP deaminases prompted us to test whether dCTP or other nucleotide triphosphates were substrates of PEF/P45. PEF was incubated with dCTP or dUTP and the reaction products were separated by reverse phase HPLC. Reaction mixtures (50 μl) containing 1× cloned Pfu polymerase buffer, 10 mM dCTP or dUTP, and 700 ng PEF (or 5 μl of cloned p45 (˜100 ng) or nothing (neg. control)) were incubated at 72° C. for 1 hour. The samples were injected on a […] Waters Delta-pak C-18 column (300 angstrom/15 μm), equilibrated in 50 mM triethylammonium acetate, pH (7.0) (A). Products were eluted with acetonitrile (B) at 2 ml/min. using the following gradient: 0% B for 5 minutes, 0-10% B over 20 minutes. Absorbence of the eluate was monitored with a photodiode array detector, and peak areas were integrated at 260 nm.\nIn a separate Western assay, samples from Thermus thermophilis were run out on an SDS-PAGE gel and probed with the rP45 antisera. […] The PEF as dUTPase activity in these samples was further confirmed by a dUTP conversion assay employing reverse phase HPLC."}, "Pfu DNA polymerase": {"molecular_target": "T1, Pfu DNA polymerase (Pyrococcus furiosus, UniProt P61875)", "T1 sequence (P61875 1-775)": "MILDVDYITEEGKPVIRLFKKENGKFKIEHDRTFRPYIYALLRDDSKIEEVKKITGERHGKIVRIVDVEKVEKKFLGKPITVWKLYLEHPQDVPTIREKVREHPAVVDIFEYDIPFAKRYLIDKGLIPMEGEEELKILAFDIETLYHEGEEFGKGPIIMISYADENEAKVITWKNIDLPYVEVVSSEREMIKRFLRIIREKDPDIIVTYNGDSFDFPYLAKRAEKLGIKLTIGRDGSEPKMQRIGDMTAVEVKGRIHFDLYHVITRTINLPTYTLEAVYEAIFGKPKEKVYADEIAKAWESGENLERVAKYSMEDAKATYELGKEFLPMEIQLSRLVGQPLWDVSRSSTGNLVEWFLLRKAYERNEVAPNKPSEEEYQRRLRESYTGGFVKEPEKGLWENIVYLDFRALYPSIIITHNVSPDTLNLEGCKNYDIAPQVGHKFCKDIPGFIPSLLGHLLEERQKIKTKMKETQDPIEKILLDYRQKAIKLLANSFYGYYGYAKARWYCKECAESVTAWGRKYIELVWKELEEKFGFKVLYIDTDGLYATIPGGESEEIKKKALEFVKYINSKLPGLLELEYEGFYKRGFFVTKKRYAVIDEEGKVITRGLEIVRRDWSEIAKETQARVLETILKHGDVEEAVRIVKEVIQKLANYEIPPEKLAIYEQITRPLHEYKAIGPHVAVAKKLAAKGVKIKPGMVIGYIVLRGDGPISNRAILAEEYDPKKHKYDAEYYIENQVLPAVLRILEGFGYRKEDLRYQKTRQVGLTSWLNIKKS", "experiment": "0.9 kb α1-antitrypsin PCR in absence or presence of dUTP", "protocol": "A relatively small (0.9 kb) fragment of the human α1-antitrypsin gene was amplified in the absence or presence of dUTP. PCR reaction mixtures contained the following (in a 100 μl volume): 1× Cloned Pfu polymerase buffer; 200 μM each, dCTP, dGTP, dATP; 200 ng oligo F91-23 (100 ng/μl); 200 ng oligo R980-23 (100 ng/μl); 125 ng Human genomic DNA; 2.5 units Pfu DNA polymerase; 200 μM total of (dTTP and dUTP) or (dTTP+PEF generated dUMP).\nPCR cycling was carried out as follows: 95° C. for 1 minute (1 cycle); 95° C. for 1 minute—58° C. for 1 minute—72° C. for 2 minutes (30 cycles).\nSeven ng of PEF can reverse the inhibition caused by as much as 20 μM dUTP (data not shown). The preferred amount of PEF or P45 used in a particular reaction can be optimized according to the principles provided here or by methods for quantifying amplification reactions known in the art."}, "[2]": {"test_system": "gapped-duplex calf thymus DNA", "experiment": "DNA polymerase activity, gapped-duplex calf thymus DNA assay", "protocol": "Initially and as a control to confirm the activity of the DNA polymerase used, gapped-duplex calf thymus DNA (Pharmacia) assays were performed. The polymerase cocktail contained 50 mM Tris-HCl, pH 8.0, 5 mM MgCl2, 1 mM DTT, 50 μg/m BSA, 4% glycerol, 200 μM each dNTP, [^3H]TTP (0.5 mCi·μmole final concentration), and 250 μg/ml of activated calf thymus DNA (Pharmacia). Samples containing Pfu DNA polymerase or P. furiosus PEF were serially diluted in Pfu DNA polymerase storage buffer (50 mM Tris-HCl, pH 8.2, 0.1% NP-40, 0.1% Tween-20, 0.1 mM EDTA, 1 mM DTT, 50% glycerol) and then 1 μl of each dilution was added to 10 μl aliquots of polymerase cocktail. Polymerization reactions were conducted in triplicate for 30 minutes at 72° C. The extension reactions were quenched on ice, and then 5 μl aliquots were spotted immediately onto DE81 filters (Whatman). Unincorporated [^3H]TTP was removed by 6 washes with 2×SCC (0.3M NaCl, 30 mM sodium citrate, pH 7.0), followed by one wash with 100% ethanol. Incorporated radioactivity was measured by scintillation counting. The assay was calibrated by counting a known amount of [^3H]TTP on DE-81 filters, omitting the wash steps. One unit of polymerase activity is defined as the amount of enzyme which catalyzes the incorporation of 10 nmoles of total dNTP into polymeric form (binds to DE-81 paper) in 30 minutes at 72° C. […]"}}, "data": [{"molecule": "B1", "values": [{"measurement": "dUTP peak after incubation", "setting": "[1]; 10 mM dUTP, one hour", "result": 0.1, "unit": "% total peak area"}, {"measurement": "new peak eluting at 4.400 minutes (dUMP)", "setting": "[1]; 10 mM dUTP, one hour", "result": 98, "unit": "% total peak area"}, {"measurement": "dUTP converted", "setting": "[1]; 1 hour, 700 ng PEF", "result": 100, "unit": "%"}, {"measurement": "prevention of dUTP inhibition", "setting": "Pfu DNA polymerase; added to PCR reactions containing dUTP", "result": "completely prevented"}, {"measurement": "dUTP concentration whose inhibition is reversed", "setting": "Pfu DNA polymerase; seven ng of PEF, as much as, data not shown", "result": 20, "unit": "µM"}, {"measurement": "DNA polymerase activity (in words)", "setting": "[2]", "result": "no significant DNA polymerase activity"}]}]}
